Measurements: US20070026510A1, “Process for biochemical production of glyoxylic acid” (Kaneka Corporation, priority 2003, published 2007)
One block for each molecule: values may come before it.

How the values were obtained:
[1] = Oxidase activity to glyoxylic acid (H2O2 detection with 4-AA/TOOS/POD, absorbance 555 nm); assay type: biochemical; conditions: substrate glyoxylic acid, relative to glyoxal = 100; enzymes of the invention
Protocol: (§1) The cell-free extract of each of KNK235 and KNK058 obtained by the method described in Example 1 was charged to a Resource Q column (6 ml) that had previously been equilibrated with a 0.05 M phosphate buffer (pH 7), and the enzyme was eluted with a linear concentration gradient of sodium chloride from 0 to 0.5 M, so as to collect active fractions. Roughly purified enzyme solutions of these KNK235 and KNK058 and purified enzymes obtained from Streptomyces sp. KNK269, Microbacterium sp. KNK011, and Cellulosimicrobium cellulans IFO 15516, obtained in Examples 4, 5, and 7, respectively, were measured in terms of their oxidase activity to glyoxal and to glyoxylic acid. Measurement of the enzyme activity was carried out by the following method. That is, 1.0 ml of a reaction solution comprising 10 mM glyoxal or glyoxylic acid, 0.67 mM 4-AA, 1.09 mM TOOS, 2 U/ml POD, and a roughly purified enzyme from KNK235 or KNK058, or a purified enzyme obtained from NKN269, KNK011, or IFO 15516 in Example 4, 5, or 7, was reacted at 30° C. in a 100 mM phosphate buffer (pH 7). Thereafter, an increase in the absorbance at a wavelength of 555 nm was measured.

[2] = Conversion of glyoxal into glyoxylic acid by purified enzymes, HPLC; assay type: biochemical; conditions: 0.2 U/ml enzyme, 50 mM glyoxal, 5,000 U/ml catalase, 100 mM Tris-HCl, 30° C., 3 hours
Protocol: Each of the enzymes derived from Streptomyces sp. KNK269, Microbacterium sp. KNK011, Pseudomonas sp. KNK058, and Cellulosimicrobium cellulans IFO 15516, which were obtained in Examples 4, 5, 6, and 7, respectively, was reacted using glyoxal as a substrate. That is, 1 ml of 100 mM Tris-HCl buffer comprising 0.2 U/ml enzyme derived from each of the above strains, 50 mM glyoxal, and 5,000 U/ml catalase, were placed in a test tube. It was then subjected to a shake reaction at 30° C. for 3 hours. After completion of the reaction, the reaction solution was analyzed by high performance liquid chromatography.

[3] = Oxidase activity to glyoxal (H2O2 detection with 4-AA/TOOS/POD, absorbance 555 nm); assay type: biochemical; conditions: for Activity to glyoxal/activity to glyoxylic acid: 10 mM substrate, 30° C., 100 mM phosphate buffer pH 7; for Relative activity (%): substrate glyoxal (reference = 100), enzymes of the invention
Protocol: When the reaction is catalyzed by oxidase, not only glyoxylic acid but also hydrogen peroxide is produced. Oxidase activity of interest can easily be detected by detecting such hydrogen peroxide.
Specifically, 0.1 ml of cell suspension or enzyme solution is added to 0.9 ml of a 100 mM phosphate buffer (pH 7) having the composition indicated below, and an increase in the absorbance at a wavelength of 555 nm is measured at 30° C. In the present invention, enzyme activity for generating 1 μmol H2O2 per minute is defined as 1 unit.
as §1

[4] = Heat stability of purified enzyme (remaining activity); assay type: physicochemical; conditions: 0.05 M phosphate buffer pH 7.2, 20 minutes, treatment at 70° C. (FIG. 3)
Protocol: as §1, with “measured. […]” for “measured.”
The present enzyme was treated in a 0.05 M phosphate buffer (pH 7.2) at each temperature from 30° C. to 70° C. for 20 minutes. Thereafter, the remaining activity of the present enzyme was measured using glyoxal as a substrate.

glyoxylic acid generated [2]: 26 mM
Activity to glyoxal/activity to glyoxylic acid [3]: 100
Molecule: IFO15516-derived enzyme: aldehyde oxidase purified from culture supernatant of Cellulosimicrobium cellulans IFO 15516; SEQ ID NOS: 11 and 12
Relative activity (%) [1]: 1%
Relative activity (%) [3]: 100%

glyoxylic acid generated [2]: 25 mM
Activity to glyoxal/activity to glyoxylic acid [3]: 183
Molecule: KNK011-derived enzyme: aldehyde oxidase purified from Microbacterium sp. KNK011; SEQ ID NOS: 7 and 8
Relative activity (%) [1]: 0.5%
Relative activity (%) [3]: 100%

glyoxylic acid generated [2]: 7.6 mM
Activity to glyoxal/activity to glyoxylic acid [3]: 1,710
B1: KNK269-derived enzyme: aldehyde oxidase purified from Streptomyces sp. KNK269; three subunits, SEQ ID NOS: 1 to 3 (protein)
chain 1: GADLEPEPVVDEHSTVTLNVNGDPTTLTVDHRTTVLETLRESFGLTGAKKGCDHGQCGACTVLVDGRRVNSCLLLAVAQDGATITTVEGLADGEDLHPVQRAFVERDALQCGFCTPGQICSAVGMLREAADGHPSHVTGPDTAAGPDAATGPGGPVALDADEIRERMSGNIFRCGAYHRIVEAIEDVIE
chain 2: MKPFGYVRPASPDEAVRLCAEGSGARFLGGGTNLVDLMKLGVEAPRVLIDVAGLPLDRVTRTADGGLAIGATVRNSDLAAHPDVTDRYPVLSQALLAGASGQLRNSATTGGNLLQRTRCRYFQDVSKPCNKRLPGSGCPARDGTHRDLAILGHSPECVATNPSDMAVALAALDATVVLLGPEGERAVPLTEFHRLPGENPDQDTAIRTGELITEVVLPPPAPGAATRYRKARDRASFAFALVSVAATLRVDAGRVEHATLAFGGVAHRPWRARRAEAELRGAPATPAVFQHALIAELAEARPLRDNVFKVDLARRLALDVLGELTERQPTRTG
chain 3: MTTRAPQFPGAPVVRREARDKVTGTARYAADRTPAGCLYAWTVPAAVAAGRVTAVRAVDALAVPGVHTVLTHDNAPELREPDDPILAVLQDDRVPHHGWPIALVIAESPEAARTGAGELHVEYARDEHDVTLTEDHPGLYTPEEANGGEPAVRVRGDVERALAASPVQVDATYRMVALHNHPMEPHAATAVRADGHLTVHDSSQGSTKVRESLAQAFGLAADRITVVSEHVGGGFGSKGTTRPQGVLAAMAAQHTGRPVKLVFPRAQLAEVVGHRAPTIQRVRLGADLDGVLTAVSHEVVTQTSTVKEFVEQAAVPARVMYASPHSRTAHRVTALDVPSPSWMRAPGEASGMYALESAMDVLDSALGLDPVELRLRNEPETEPDSGRPFSSRGLAACLRDGAARFGWQDRDPRPAARQEGRWLIGTGVASATYPVLLSRSTASAHATRDGDLSIAVNATDIGTGARTVLAQIAADVLGVAPEALRVDIGSTDLPAAPLAGGSSGTASWGWSVHKAATALAARLAEHRGPLPADGITTTADTGQETGEESPYARHAFGAHFAETAVDAVTGEVRVRRLLGVYAAGRILNERTARSQFTGGMVMGIGMALTEGCGIDPGFGDFTAKDLASYHVPVCADTADIQAHWIEEDDRHLNPMGSKGIGEIGIVGTAAAIGNAVRHATGARLRELPLTTDT
modifications: Streptomyces sp. KNK269; amino acid sequence of subunit gamma of aldehyde oxidase; amino acid sequence of subunit beta of aldehyde oxidase; amino acid sequence of subunit alpha of aldehyde oxidase
Relative activity (%) [1]: 0.1%
remaining activity after heat treatment [4]: ≥ 90%
Relative activity (%) [3]: 100%
